These results are taken from PMC8162480.

By Kd is commonly meant the constant that tells how readily two partners part at equilibrium. Read a high Kd as weaker binding.

In the data set the target is T1, HER2 epitope peptide (extracellular juxtamembrane region) (human, UniProt P04626).
T1 chain: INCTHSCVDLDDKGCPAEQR
In words: bead-bound peptide pull-down, HPLC detection.

B1: HB5 (FITC-labeled) (ssDNA)
DNA: AACCGCCCAAATCCCTAAGAGTCTGCACTTGTCATTTTGTATATGTATTTGGTTTTTGGCTCTCACAGACACACTACACACGCACA
Take B1: the affinity, expressed as Kd, was 34.7 nM.

B2: HB5-FITC-PL-Peptide probe (ssDNA)
DNA: AACCGCCCAAATCCCTAAGAGTCTGCACTTGTCATTTTGTATATGTATTTGGTTTTTGGCTCTCACAGACACACTACACACGCACA
modifications: 5'-thiol-C6 conjugated via maleimide to …-PL-K(FITC)FK-Mal (PL = photocleavable o-nitrobenzyl linker)
Take B2: binding was characterised by a dissociation constant (Kd) of 67.4 nM. This Kd is about 1.9-fold higher than that of the molecule before.
